Data reported in the supplement of paper PMC7125110.
± gives the standard error. This sample holds only a part of the variants without activity.

B1: glmS ribozyme (parent)
chain: AUAAAAGCGCCAGAACUACAGAAAUGUAGUUGACGAGGAGGAGGUUUAUCGAAUUUUCGGCGGAUGCCUCCAAA

Variants of: B1
Test: self-cleavage kobs at 2500 uM GlcN6P; higher = faster cleavage; RNA array
Conditions: with glucosamine-6-phosphate
How it was run: (§1)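 Tracking of barcoded ribozyme variants used a hybridised Cy3 probe at 37 °C, after in situ transcription by E. coli RNA polymerase on sequenced MiSeq chips. The flowed solution held 40 μM to 10 mM glucosamine-6-phosphate in HEPES/KCl/Mg(OAc)2 buffer, and imaging ran over ~14 h. kobs was taken from exponential decay fits of normalised per-tile medians, and kcat and KM from weighted Michaelis–Menten fits.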

| Variant | self-cleavage kobs at 2500 uM GlcN6P |
| --- | --- |
| G32C G37C U55C U65G | < 1e-05 s⁻¹ |
| G37A C68A C70U | < 1e-05 s⁻¹ |
| A39C U46A U47G A48C G63A | < 1e-05 s⁻¹ |
| U31G G41A U54C | 6.89e-05 ± 2.6e-05 s⁻¹ |
| A14G C34U G35A G43C | < 1e-05 s⁻¹ |
| A15C G32U G38C G59U | < 1e-05 s⁻¹ |
| G13U G35A C67A | < 1e-05 s⁻¹ |
| C11U G40C G44A G51A C61G C71A | < 1e-05 s⁻¹ |
| C11U G13C G62A C71U | < 1e-05 s⁻¹ |
| C8U A36C G51U C68A | < 1e-05 s⁻¹ |
| G37A A53U G66U | 8.93e-05 ± 3.4e-05 s⁻¹ |
| C34A A48U C50U | < 1e-05 s⁻¹ |
| A64G C68G C71G | 0.000122 ± 3.9e-05 s⁻¹ |
| C11U G35U C67A C70A | 5.48e-05 ± 2.6e-05 s⁻¹ |
| A53G U57A C68A | 4.93e-05 ± 2.2e-05 s⁻¹ |
| G37U G51C A52G C61U C67U | < 1e-05 s⁻¹ |
| C10U A14C G66C | < 1e-05 s⁻¹ |
| A42U G43U C50G | 7.64e-05 ± 3.6e-05 s⁻¹ |
| C8U A42C U46A U55A | < 1e-05 s⁻¹ |
| A6G A42C U69G | 0.000462 ± 0.00019 s⁻¹ |
| A15G G35C G37U G43C | < 1e-05 s⁻¹ |
| G32A G38U A53C U55C G60C C71U | < 1e-05 s⁻¹ |
| A52C C58A C70U | < 1e-05 s⁻¹ |
| U49C U56G G66C | < 1e-05 s⁻¹ |
| A6U G7C A15U G29C G38A G44A C61A | < 1e-05 s⁻¹ |
| A36U A42G U49G U56C G66U C71U | < 1e-05 s⁻¹ |

| Variant | self-cleavage kobs at 2500 uM GlcN6P |
| --- | --- |
| C34G U46C | < 1e-05 s⁻¹ |
| A33C G38C A48U | < 1e-05 s⁻¹ |
| G35A U46A A64G | < 1e-05 s⁻¹ |
| G32U G63C C71G | 6.45e-05 ± 3.2e-05 s⁻¹ |
| G9C G38A A52U | < 1e-05 s⁻¹ |
| U30C G41C U45G | < 1e-05 s⁻¹ |
| U31C G43C U65G | < 1e-05 s⁻¹ |
| U30G C67U C71G | 0.00027 ± 9.4e-05 s⁻¹ |
| A15G A39U A64C | 0.000106 ± 2.7e-05 s⁻¹ |
| G13U U31C C70U | 0.000186 ± 4.5e-05 s⁻¹ |
| C16G A36U A48G C58A | < 1e-05 s⁻¹ |
| A39G G40U A52G | 6.69e-05 ± 2.4e-05 s⁻¹ |
| A14U U65A U69C | 0.000173 ± 4.9e-05 s⁻¹ |
| C8G A15C A36G | < 1e-05 s⁻¹ |
| C16A A39U C71A | 6.01e-05 ± 1.6e-05 s⁻¹ |
| C16U C50G U54A | 9.89e-05 ± 3.1e-05 s⁻¹ |
| G66U C68U C71G | 5.06e-05 ± 2.1e-05 s⁻¹ |
| U31C C34G A39U A42G U47C C70A | < 1e-05 s⁻¹ |
| C16G G37A A48G G60A U65G C67U | < 1e-05 s⁻¹ |
| G29C C67A C68G | 7.78e-05 ± 2.8e-05 s⁻¹ |
| G37C U57C C58G | < 1e-05 s⁻¹ |
| C8G C10A G44U | < 1e-05 s⁻¹ |
| A6C A12U C50G G51C U54A | < 1e-05 s⁻¹ |
| A14U A33C U55G | 7.4e-05 ± 2.1e-05 s⁻¹ |
| A39C U54A U55C | 0.00249 ± 0.00052 s⁻¹ |
| U30G G32A A42U A48G | < 1e-05 s⁻¹ |

| Variant | self-cleavage kobs at 2500 uM GlcN6P |
| --- | --- |
| A6C C10G A36G | < 1e-05 s⁻¹ |
| A12U G41U A42G G51C | < 1e-05 s⁻¹ |
| U45C U47G | 0.000218 ± 9.6e-05 s⁻¹ |
| G13A G32U G35C A39C | < 1e-05 s⁻¹ |
| U31G A52C C58G | < 1e-05 s⁻¹ |
| A6U A53U G63U | < 1e-05 s⁻¹ |
| A6C G9A G32A | < 1e-05 s⁻¹ |
| A14U G43C C68U | 5.22e-05 ± 1.6e-05 s⁻¹ |
| U46G G59U G60U | < 1e-05 s⁻¹ |
| G35U G41U G62A | < 1e-05 s⁻¹ |
| U31A G41U C70U | 0.00307 ± 0.00088 s⁻¹ |
| C10U A12U A53U | 4.13e-05 ± 1.7e-05 s⁻¹ |
| U30A G37C U65G G66U | < 1e-05 s⁻¹ |
| C34U U45G C70A | < 1e-05 s⁻¹ |
| A36G G40C G60C | < 1e-05 s⁻¹ |
| C8A G32U A42U A48G G51C | < 1e-05 s⁻¹ |
| C8U G37U | < 1e-05 s⁻¹ |
| U30A U31G A48C | 6.79e-05 ± 1.6e-05 s⁻¹ |
| G59C C61U C67A | 4.78e-05 ± 1.7e-05 s⁻¹ |
| G51U C68U C71U | < 1e-05 s⁻¹ |
| G38A A42G C68G | < 1e-05 s⁻¹ |
| A39G A42U C68U | 0.000999 ± 0.00036 s⁻¹ |
| A15U G40U U49A G60U | < 1e-05 s⁻¹ |
| A36C G44A C70A | < 1e-05 s⁻¹ |
| C8A A53U C71U | < 1e-05 s⁻¹ |

Variants of: B1
Test: self-cleavage kobs at 10000 uM GlcN6P; higher = faster cleavage; RNA array
Conditions: with glucosamine-6-phosphate
How it was run: as §1

| Variant | self-cleavage kobs at 10000 uM GlcN6P |
| --- | --- |
| C8U A36C G51U C68A | < 1e-05 s⁻¹ |
| A6U G7C A15U G29C G38A G44A C61A | < 1e-05 s⁻¹ |
| A36U A42G U49G U56C G66U C71U | < 1e-05 s⁻¹ |
| A33C G38C A48U | < 1e-05 s⁻¹ |
| G9C G38A A52U | < 1e-05 s⁻¹ |
| G13U U31C C70U | 0.000187 ± 3.2e-05 s⁻¹ |
| A14U U65A U69C | 0.000191 ± 3.3e-05 s⁻¹ |
| A12U G41U A42G G51C | < 1e-05 s⁻¹ |
| G35U G41U G62A | < 1e-05 s⁻¹ |
| C34U U45G C70A | < 1e-05 s⁻¹ |
